This note sets out measurements from publication PMC13440416.

Where only a bound is given, the exact number is not on record here.

The data set relates to LexA (Escherichia coli). Put plainly: EMSA. For orientation: In EMSA bound probe runs differently from free probe, usually more slowly.

In general, Kd refers to the concentration at which binding is half-saturated. Take YNN1-LexO naked DNA: the Kd is below 5 nM.
